Laboratory results taken from patent US8937153B2, “Compositions, methods and uses” (Affibody AB, priority 2007, dated 2015).

Assays:
[1] = target: MSA (mouse serum albumin) (Mus musculus, UniProt P07724); assay: Biosensor (Biacore) analysis of ABD variants' binding to mouse serum albumin; details: N-terminal His6-tagged proteins injected at 25 nM; MSA immobilized 350 RU; qualitative measure of relative affinities
Experimental: (§1) ABDwt and the twelve ABD variants, all sub-cloned in pAY442 as described above, were expressed in E. coli BL21(DE3) as fusions to an N-terminal His6-tag and purified by IMAC. A colony of each ABD variant was used to inoculate 5 ml TSB medium supplemented with 50 μg/ml kanamycin. The cultures were grown over night at 37° C. The following day, 50 μl of each culture were inoculated separately to 100 ml TSB+YE medium supplemented with 50 μg/ml kanamycin in a 1 liter flask. The cultures were grown at 100 rpm at 37° C. to an OD600 of 0.7-1, after which IPTG was added to a final concentration of 0.5 mM and cells were incubated at room temperature over night at 100 rpm. Cultures were harvested by centrifugation at 8000 g for 5 minutes and pellets were stored in a freezer until protein preparation.
(§2) The His6-tagged proteins were IMAC purified under denatured conditions using Ni-NTA Superflow columns and QIAsoft 4.1, protein/Ni-NTA Superflow 96 denaturing large scale 2 Vac4-24 samples, on a Biorobot 3000 (Qiagen). The buffer was exchanged to PBS using a dialysis cassette (Slide-A-Lyser, 3.5 kDa; Pierce cat. no. 66330) by dialyzing against 5 l PBS for 2 h followed by an additional dialysis over night. […]

[2] = target: T1, HSA (human serum albumin) (Homo sapiens, UniProt P02768); assay: Biosensor (Biacore) analysis of ABD variants' binding to human serum albumin (Example 2); details: N-terminal His6-tagged proteins injected at 25 nM; HSA immobilized 360 RU; qualitative measure of relative affinities
Experimental: as §1, §2

[3] = target: T1, HSA (human serum albumin); assay: Biosensor analysis for binding kinetics to human serum albumin (Example 3); details: His6-tagged; HSA immobilized 450 RU; values estimated
Experimental: ABD00003, ABD00053, ABD00239 and ABDwt were expressed in E. coli BL21(DE3) cells as fusions to an N-terminal His6-tag using constructs as described in Example 2, and purified by IMAC. A colony of each ABD variant was used to inoculate 10 ml TSB medium supplemented with 50 μg/ml kanamycin. The cultures were grown over night at 37° C. The following day, 500 μl of each culture were inoculated separately to 500 ml TSB+YE medium supplemented with 50 μg/ml kanamycin in a 5 liter flask. The cultures were grown at 100 rpm and 37° C. to an OD600 of 0.7-1, which was followed by addition of IPTG to a final concentration of 0.5 mM and incubated at room temperature over night. Cultures were harvested by centrifugation at 8000 g for 5 minutes and pellets were stored at −20° C. until protein preparation.
The His6-tagged proteins were IMAC purified under denaturing conditions using His-Gravitrap™ kit (GE Healthcare). The pellets were re-suspended (vortexed) in 20 ml of the denaturation buffer B-7M (100 mM NaH2PO4, 10 mM Tris-Cl, 7 M urea, pH 8) and 8 μl benzonase was added.
Biosensor analysis on a Biacore2000 instrument (Biacore) was performed with HSA (SIGMA, cat. no. A3782-5G) immobilized by amine coupling onto the carboxylated dextran layer on surfaces of a CM-5 chip (research grade; Biacore), according to the manufacturer's recommendations. […] One cell surface on the chip was activated and deactivated and used as reference cell during injections. The purified His6-ABD samples were diluted in HBS-EP (Biacore) to 4, 10, 40, 100 and 400 nM for ABDwt and to 0.2, 0.8, 2, 5 and 20 nM for the selected ABD variants. The samples were injected at a constant flow-rate of 25 μl/min for 10 min, followed by injection of HBS-EP for 3 hours. The surfaces were regenerated with two injections of 20 μl of 5 and 10 mM HCl.

[4] = Solubility in aqueous solvents (general statement); type: physicochemical
Description: For example, 30% organic solvent is needed to keep the conjugate in solution.

Chain of MSA (mouse serum albumin) (P07724 25-608): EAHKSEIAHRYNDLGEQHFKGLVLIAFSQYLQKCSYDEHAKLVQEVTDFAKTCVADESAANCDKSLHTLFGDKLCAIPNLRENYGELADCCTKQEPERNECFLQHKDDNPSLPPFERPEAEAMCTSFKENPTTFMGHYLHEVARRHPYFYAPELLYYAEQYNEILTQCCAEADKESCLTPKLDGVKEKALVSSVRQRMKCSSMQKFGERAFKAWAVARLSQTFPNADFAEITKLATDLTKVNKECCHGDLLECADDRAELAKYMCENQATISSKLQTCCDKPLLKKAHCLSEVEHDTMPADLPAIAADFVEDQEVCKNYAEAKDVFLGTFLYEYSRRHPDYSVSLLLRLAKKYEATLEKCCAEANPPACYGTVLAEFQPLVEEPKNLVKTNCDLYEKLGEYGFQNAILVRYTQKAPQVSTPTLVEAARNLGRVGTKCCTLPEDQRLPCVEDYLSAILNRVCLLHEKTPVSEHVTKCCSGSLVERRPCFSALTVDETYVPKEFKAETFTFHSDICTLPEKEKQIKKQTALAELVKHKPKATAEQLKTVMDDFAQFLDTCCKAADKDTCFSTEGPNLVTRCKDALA

## ABDwt
[1]
  Kd: 4.9 nM
[2]
  Kd: 1.5 nM
[3]
  Kd: 1.2 nM
  ka to HSA: 550000 M/s
  kd to HSA: 0.00065 s⁻¹

## COc1cccc2c1C(=O)c1c(O)c3c(c(O)c1C2=O)C[C@@](O)(C(=O)CO)CC3O[C@H]1CC(NC(=O)OCc2ccc(NC(=O)OCc3ccc(NC(=O)[C@H](CCCNC(N)=O)NC(=O)[C@@H](NC(=O)CCCCCN4C(=O)C=CC4=O)C(C)C)cc3)cc2)C(O)[C@@H](C)O1 (stereo partly drawn) [free linker, Maleimide-Spacelinker-Doxorubicin]
[4]
  solubility in aqueous solvents: low solubility
